How the values were obtained:
Assay in all cases: pull-down; GST fusion proteins on glutathione-agarose; His6- or His6-MBP-tagged SF1 proteins in two-fold molar excess; NETN (20 mM Tris-HCl pH 8.0, 50 mM NaCl, 0.5% NP-40, 0.5 mM EDTA), 45 min 4°C; with or without RNase A; western blot with anti-His6
Settings in all cases: both partners purified
[1] = target: T1, His6-SF1-C370 (human, UniProt Q15637 1-370)
T1 construct: human SF1, amino acids 1–370, the region common to all SF1 isoforms; in pTrcHisA; source: E. coli XL1-Blue, purified (TALON resin, lysis in 8 M urea, dialyzed); not shown: His6, N-terminal, kept
T1 sequence (looked up): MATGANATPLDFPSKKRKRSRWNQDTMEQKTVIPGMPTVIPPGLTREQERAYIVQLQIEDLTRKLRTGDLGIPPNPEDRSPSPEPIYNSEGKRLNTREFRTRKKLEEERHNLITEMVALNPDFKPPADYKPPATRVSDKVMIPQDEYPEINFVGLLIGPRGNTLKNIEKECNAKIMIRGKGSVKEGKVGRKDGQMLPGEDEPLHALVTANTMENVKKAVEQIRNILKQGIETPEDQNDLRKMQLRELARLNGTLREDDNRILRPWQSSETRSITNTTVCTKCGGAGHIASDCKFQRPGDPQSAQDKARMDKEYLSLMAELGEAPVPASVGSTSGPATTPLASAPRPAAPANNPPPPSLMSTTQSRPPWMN

[2] = target: T2, His6-SF1-C327 (human, UniProt Q15637 1-327)
T2 construct: human SF1, C-terminal truncation to residue 327; SF1-C370 is 1–370; source: E. coli XL1-Blue, purified (TALON resin, lysis in 8 M urea, dialyzed); not shown: His6, N-terminal, kept
T2 sequence (looked up): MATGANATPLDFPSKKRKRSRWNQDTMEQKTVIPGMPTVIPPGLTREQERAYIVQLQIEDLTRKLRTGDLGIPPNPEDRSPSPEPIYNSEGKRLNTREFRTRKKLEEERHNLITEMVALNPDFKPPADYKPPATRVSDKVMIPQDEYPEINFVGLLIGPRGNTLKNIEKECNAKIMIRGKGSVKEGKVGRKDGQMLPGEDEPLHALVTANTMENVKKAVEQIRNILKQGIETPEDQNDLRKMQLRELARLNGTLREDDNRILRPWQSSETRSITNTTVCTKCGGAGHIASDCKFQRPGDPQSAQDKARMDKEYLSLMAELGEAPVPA

[3] = target: T3, His6-SF1-C315 (human, UniProt Q15637 1-315)
T3 construct: source: E. coli XL1-Blue, purified (TALON resin, lysis in 8 M urea, dialyzed); not shown: His6, N-terminal, kept
T3 sequence (looked up): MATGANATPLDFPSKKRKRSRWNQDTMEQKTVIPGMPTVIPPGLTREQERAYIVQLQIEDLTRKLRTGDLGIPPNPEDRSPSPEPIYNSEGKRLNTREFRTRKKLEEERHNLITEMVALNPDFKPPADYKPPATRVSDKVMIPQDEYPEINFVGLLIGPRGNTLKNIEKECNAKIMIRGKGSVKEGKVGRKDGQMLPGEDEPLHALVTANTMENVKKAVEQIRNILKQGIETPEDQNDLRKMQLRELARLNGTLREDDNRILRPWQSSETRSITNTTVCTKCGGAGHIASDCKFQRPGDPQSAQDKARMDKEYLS

[4] = target: T4, His6-SF1-C302 (human, UniProt Q15637 1-302)
T4 construct: source: E. coli XL1-Blue, purified (TALON resin, lysis in 8 M urea, dialyzed); not shown: His6, N-terminal, kept
T4 sequence (looked up): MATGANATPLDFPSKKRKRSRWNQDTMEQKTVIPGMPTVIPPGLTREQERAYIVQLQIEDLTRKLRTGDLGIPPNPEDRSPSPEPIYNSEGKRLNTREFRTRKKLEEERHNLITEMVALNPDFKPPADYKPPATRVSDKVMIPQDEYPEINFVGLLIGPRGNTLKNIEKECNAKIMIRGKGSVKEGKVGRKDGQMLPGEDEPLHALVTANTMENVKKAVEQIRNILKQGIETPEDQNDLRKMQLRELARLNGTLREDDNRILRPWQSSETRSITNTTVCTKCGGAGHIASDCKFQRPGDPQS

[5] = target: T5, His6-MBP-SF1-C370 Δ306–326 (human, UniProt Q15637 1-370, Δ306–326, replaced by one KpnI site encoding Gly and Thr)
T5 construct: in pETMBP-1a; source: E. coli BL21, purified (TALON resin, lysis in 8 M urea, dialyzed); not shown: His6, N-terminal, kept; MBP, N-terminal, kept
T5 sequence (looked up): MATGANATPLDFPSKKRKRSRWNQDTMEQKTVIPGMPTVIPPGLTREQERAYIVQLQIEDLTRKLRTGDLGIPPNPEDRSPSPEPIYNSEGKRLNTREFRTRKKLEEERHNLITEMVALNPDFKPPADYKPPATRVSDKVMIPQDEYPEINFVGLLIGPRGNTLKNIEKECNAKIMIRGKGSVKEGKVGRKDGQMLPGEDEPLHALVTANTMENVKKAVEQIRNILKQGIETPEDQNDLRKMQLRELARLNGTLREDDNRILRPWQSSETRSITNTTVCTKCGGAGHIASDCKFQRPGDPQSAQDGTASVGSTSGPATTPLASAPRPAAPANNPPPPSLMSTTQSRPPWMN

[6] = target: T6, His6-SF1-C320 (human, UniProt Q15637 1-320)
T6 construct: human SF1, C-terminal truncation to amino acid 320; it follows the naming of the other truncations; also called deletion to amino acid 320; source: E. coli XL1-Blue, purified (TALON resin, lysis in 8 M urea, dialyzed); not shown: His6, N-terminal, kept
T6 sequence (looked up): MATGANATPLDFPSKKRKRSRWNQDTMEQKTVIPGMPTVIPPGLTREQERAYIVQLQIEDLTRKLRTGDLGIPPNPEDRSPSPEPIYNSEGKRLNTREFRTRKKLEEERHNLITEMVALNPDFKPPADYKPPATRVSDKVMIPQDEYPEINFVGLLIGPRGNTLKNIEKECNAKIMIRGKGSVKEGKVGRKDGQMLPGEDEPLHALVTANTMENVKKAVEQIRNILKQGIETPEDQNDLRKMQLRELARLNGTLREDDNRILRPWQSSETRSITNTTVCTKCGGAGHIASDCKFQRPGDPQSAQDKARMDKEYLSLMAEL

Measured: binding result

B1: GST-SF3a120-SURP1 (domain or fragment, UniProt Q15459 38-113, looked up)
chain: PVVGIIYPPPEVRNIVDKTASFVARNGPEFEARIRQNEINNPKFNFLNPNDPYHAYYRHKVSEFKEGKAQEPSAAI
notes: SURP1 of SF3a120, amino acids 38–113, in pDEST15; also called SURP1 of SF3a120; source: E. coli BL21, purified (glutathione agarose)
binds: [1] | [2]

B2: GST-U2AF65-UHM (domain or fragment, UniProt P26368 367-475, looked up)
chain: QVQMGGHPTEVLCLMNMVLPEELLDDEEYEEIVEDVRDECSKYGLVKSIEIPRPVDGVEVPGCGKIFVEFTSVFDCQKAMQGLTGRKFANRVVVTKYCDPDSYHRRDFW
notes: U2AF homology motif (UHM) of U2AF65, amino acids 367–475; also called U2AF homology motif of U2AF65; source: E. coli XL1-Blue, purified (glutathione agarose)
binds: all assays above

B3: GST-CHERP-SURP (domain or fragment, UniProt Q8IWX8 1-75, looked up)
chain: MEMPLPPDDQELRNVIDKLAQFVARNGPEFEKMTMEKQKDNPKFSFLFGGEFYSYYKCKLALEQQQLICKQQTPE
notes: single SURP domain of CHERP, amino acids 1–75, in pDEST15; also called single SURP domain of CHERP; source: E. coli BL21, purified (glutathione agarose)
binds: [1] | [2]

— paper PMC4666396, “Mammalian splicing factor SF1 interacts with SURP domains of U2 snRNP-associated proteins” (Nucleic Acids Research, 2015)
